The text below walks through data of patent publication US20080254465, “Assays for measuring nucleic acid binding proteins and enzyme activities” (BioVeris Corporation, published 2008).

For one data set, the target named is AP-2 (UniProt P05549 P05549:1-437). Put plainly: footprint; ECL 32289 vs 54041 unprotected; no DNase protection. To be noted: chain copies: 2. How it is done:
(§1) The labeled DNA substrate (50 fmol), poly dI-dC (1 ug, to reduce non-specific protein-DNA interactions) and varying amounts of recombinant NFkβ (p50 subunit) were combined in a 20 uL volume and incubated for 30 min. at room temperature. Dnase 1 (2 Units in a volume of 2 uL, Promega Corp.) was then added and the incubation was continued for an additional 30 min. at room temperature. The reaction was terminated and the biotin-labeled DNA sequences captured by in the addition of 10 µg of streptavidin Dynabeads (IGEN, International) in 0.3 ml PBS-1 containing 0.2 M EDTA, followed by incubation for 15 minutes. The reaction mixture was introduced into an ORIGEN Analyzer (IGEN International) running in Magnetic Capture Mode and the ECL signal from RuBpy on the magnetic beads was determined in the presence of a solution containing tripropylamine (ORIGEN Assay Buffer, IGEN International). A control was also run in the absence of Dnase to determine the ECL signal obtained from the uncleaved substrate. […]
(§2) The specificity of the assay was determined by replacing the specific binding protein NFkβ with other DNA binding proteins specific for sequences not present on the DNA substrate (the phosphorothioate containing substrate was used).

The next data set deals with SP-1 (UniProt P08047 P08047:2-785). Put plainly: footprint; ECL 38880 vs 54041 unprotected; no DNase protection. How it is done: as §1, §2
Data set [1] deals with T1, NF-kB p50 subunit (UniProt P19838 P19838:1-433). Put plainly: footprint; DNase I protection with ECL readout; dose dependent, signal 1729305 at 7 ng vs 96862 unprotected and 2591957 without DNase; poly dI-dC, room temperature. To be noted: tags: recombinant, Promega; chain copies: 2 inferred. How it is done: (§3) The labeled DNA substrate (50 fmol), poly dI-dC (1 ug, to reduce non-specific protein-DNA interactions) and varying amounts of recombinant NFkβ (p50 subunit) were combined in a 20 uL volume and incubated for 30 min. at room temperature. Dnase 1 (2 Units in a volume of 2 uL, Promega Corp.) was then added and the incubation was continued for an additional 30 min. at room temperature. The reaction was terminated and the biotin-labeled DNA sequences captured by in the addition of 10 µg of streptavidin Dynabeads (IGEN, International) in 0.3 ml PBS-1 containing 0.2 M EDTA, followed by incubation for 15 minutes. The reaction mixture was introduced into an ORIGEN Analyzer (IGEN International) running in Magnetic Capture Mode and the ECL signal from RuBpy on the magnetic beads was determined in the presence of a solution containing tripropylamine (ORIGEN Assay Buffer, IGEN International). A control was also run in the absence of Dnase to determine the ECL signal obtained from the uncleaved substrate. […] The addition of NFkβ gave a dose dependent increase in signal relative to that obtained from unprotected DNA, the magnitude of which approached, for high concentrations of NFkβ, the signal obtained in the absence of DNAse. The experiment was repeated with an DNA substrate with the same nucleotide sequence but containing only phosphodiester linkages and similar results were obtained.

Data set [2] concerns the target T1, NF-kB p50 subunit. Put plainly: footprint; DNase I protection, similar results to phosphorothioate substrate. The note with it: tags: recombinant, Promega; chain copies: 2 inferred. Here is the method:
as §3

T1 sequence (P19838 1-433, one chain of several): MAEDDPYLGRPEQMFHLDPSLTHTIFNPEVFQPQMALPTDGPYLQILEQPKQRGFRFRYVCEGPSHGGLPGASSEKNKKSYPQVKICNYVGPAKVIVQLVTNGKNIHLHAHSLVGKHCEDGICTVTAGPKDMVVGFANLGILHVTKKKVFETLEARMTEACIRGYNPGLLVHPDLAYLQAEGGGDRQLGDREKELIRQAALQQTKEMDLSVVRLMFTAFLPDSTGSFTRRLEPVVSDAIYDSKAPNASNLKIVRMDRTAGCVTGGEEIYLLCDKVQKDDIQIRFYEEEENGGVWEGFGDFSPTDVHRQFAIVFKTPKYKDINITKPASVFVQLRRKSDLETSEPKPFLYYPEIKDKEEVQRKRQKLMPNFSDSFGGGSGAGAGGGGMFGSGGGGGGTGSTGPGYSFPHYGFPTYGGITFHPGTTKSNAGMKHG
Chain of SP-1 (P08047 2-785, one chain of several): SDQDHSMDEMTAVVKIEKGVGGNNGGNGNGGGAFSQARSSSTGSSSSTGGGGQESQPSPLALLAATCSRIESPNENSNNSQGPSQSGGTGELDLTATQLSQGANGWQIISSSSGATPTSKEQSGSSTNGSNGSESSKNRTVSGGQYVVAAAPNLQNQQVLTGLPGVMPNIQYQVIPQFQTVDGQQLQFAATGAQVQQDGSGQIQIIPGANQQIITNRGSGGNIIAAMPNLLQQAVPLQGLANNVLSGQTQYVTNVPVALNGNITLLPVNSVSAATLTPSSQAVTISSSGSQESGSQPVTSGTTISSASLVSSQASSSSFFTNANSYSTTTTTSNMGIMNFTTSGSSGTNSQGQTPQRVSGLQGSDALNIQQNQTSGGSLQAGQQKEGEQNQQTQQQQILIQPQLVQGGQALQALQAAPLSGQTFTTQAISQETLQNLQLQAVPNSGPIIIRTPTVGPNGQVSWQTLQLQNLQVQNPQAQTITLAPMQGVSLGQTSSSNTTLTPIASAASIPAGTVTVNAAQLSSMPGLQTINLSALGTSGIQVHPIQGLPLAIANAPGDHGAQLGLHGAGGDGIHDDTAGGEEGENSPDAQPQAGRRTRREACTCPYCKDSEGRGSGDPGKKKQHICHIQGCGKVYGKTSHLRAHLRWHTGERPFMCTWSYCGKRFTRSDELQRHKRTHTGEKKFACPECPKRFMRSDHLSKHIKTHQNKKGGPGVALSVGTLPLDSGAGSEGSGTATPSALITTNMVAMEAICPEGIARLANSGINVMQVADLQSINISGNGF
Chain of AP-2 (P05549 whole entry, one chain of several): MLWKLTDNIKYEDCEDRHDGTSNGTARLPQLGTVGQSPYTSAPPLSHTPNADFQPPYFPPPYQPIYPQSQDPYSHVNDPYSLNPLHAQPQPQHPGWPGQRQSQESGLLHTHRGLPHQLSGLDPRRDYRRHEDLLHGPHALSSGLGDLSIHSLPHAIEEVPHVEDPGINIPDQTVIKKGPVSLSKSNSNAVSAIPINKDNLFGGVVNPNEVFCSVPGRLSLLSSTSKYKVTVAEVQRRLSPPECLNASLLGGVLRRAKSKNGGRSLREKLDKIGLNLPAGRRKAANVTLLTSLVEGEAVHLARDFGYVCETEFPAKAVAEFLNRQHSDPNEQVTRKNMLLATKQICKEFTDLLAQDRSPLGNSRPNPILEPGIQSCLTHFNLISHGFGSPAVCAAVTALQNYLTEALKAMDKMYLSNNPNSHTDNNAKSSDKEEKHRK

B1: NF-kB consensus substrate, phosphorothioate (dsDNA)
DNA 1: AGTTGAGGGGACTTTCCCAGGC
DNA 2: GCCTGGGAAAGTCCCCTCAACT
modifications: PS within bracketed nucleotides AGTTGAGG (5') and CCCAGGC (3') of the labelled strand
Turning to B1, the values for the binding result in the data set with AP-2, in the data set with SP-1 and with NF-kB p50 subunit [1] were “no binding”, “no binding” and “binds”, respectively.

B2: NF-kB consensus substrate, all phosphodiester (dsDNA)
DNA 1: AGTTGAGGGGACTTTCCCAGGC
DNA 2: GCCTGGGAAAGTCCCCTCAACT
For the molecule B2, the binding result in the data set with NF-kB p50 subunit [2] is on record as “binds”.
